Substrate in data set [1]: CC(C)C(=O)C(=O)O
Description: purified protein. The conditions noted are these: 10 mM L-glutamate, 0.1 M Tris-HCl pH 8, 0.1 mM PLP, 70°C.

Substrate in data set [2]: CC(C)CC(=O)C(=O)O
In words: purified protein. The conditions noted are these: 10 mM L-glutamate, 0.1 M Tris-HCl pH 8, 0.1 mM PLP, 70°C.

Substrate in data set [3]: CC[C@H](C)C(=O)C(=O)O
In words: purified protein. The conditions noted are these: 10 mM L-glutamate, 0.1 M Tris-HCl pH 8, 0.1 mM PLP, 70°C.

Substrate in data set [4]: CC(=O)C(=O)O
In words: steady-state kinetics of overall transamination, Michaelis-Menten fit. In kind it is biochemical, Geoglobus acetivorans. The conditions noted are these: 5 mM L-Leu co-substrate; extrapolated. The source says:
steady-state kinetics of overall transamination, Michaelis-Menten fit on GEO1900 | For GEO1900 the extrapolated Vmax and Km values for pyruvate and AKG were […]

Substrate in data set [5]: O=C(O)CCC(=O)C(=O)O
In words: steady-state kinetics, GluDH-coupled discontinuous assay. In kind it is biochemical, Geoglobus acetivorans. The conditions noted are these: 5 mM L-Leu co-substrate, 50 mM phosphate pH 8.0, 100 mM NaCl, 60 μM PLP, 65°C. The source says:
steady-state kinetics, GluDH-coupled discontinuous assay on GEO1900 | For GEO1900 the extrapolated Vmax and Km values for pyruvate and AKG were […]

One may read the Km as the concentration of substrate that gives half-maximal velocity. What is called Vmax is the top rate of the reaction or transport when substrate is in excess. As usually defined, the kcat/Km is the turnover number divided by the Michaelis constant.

B1: AF0933 (Archaeoglobus fulgidus DSM 4304) (protein)
chain: MLYVYMDGEFVPENEAKVSIFDHGFLYGDGVFEGIRAYNGRVFRLKEHIDRLYDSAKAIDLEIPITKEEFMEIILETLRKNNLRDAYIRPIVTRGIGDLGLDPRKCQNPSIIVITKPWGKLYGDLYEKGLTAITVAVRRNSFDALPPNIKSLNYLNNILAKIEANAKGGDEAIFLDRNGYVSEGSGDNIFVVKNGAITTPPTINNLRGITREAVIEIINRLGIPFKETNIGLYDLYTADEVFVTGTAAEIAPIVVIDGRKIGDGKPGEITRKLMEEFSKLTESEGVPIYE
Turning to B1, in “purified protein [1]”, the Km is 420 µM, the Vmax is 6.3 µmol/min/mg and the catalytic efficiency (kcat/Km) amounted to 8850 M⁻¹ s⁻¹. Moreover, in “purified protein [2]”, the Km was found to be 250 µM, the Vmax came to 5.5 µmol/min/mg and the catalytic efficiency (kcat/Km) was 13000 M⁻¹ s⁻¹. Besides, in the data set “purified protein [3]”, the Km was 130 µM, the Vmax amounted to 3.9 µmol/min/mg and the kcat/Km came out at 17700 M⁻¹ s⁻¹.

B2: GEO1900 (Geoglobus acetivorans) (protein)
chain: MSELLVYMNGEFVPESQAKVSVFDHGFLYGDGVFEGIRAYNGKVFKLYEHIDRLYDCARVIDLKIPLSKEEFAEAILETLRRNNLRDAYIRPIVTRGAGDLGLDPRKCPSPNVIIITKPWGKLYGDLYEKGLKAITVAIRRNAIDSLPPNIKSLNYLNNILAKIEANAKGGDEAIFLDHNGYISEGSGDNIFIVKNGTITTPPTLNNLKGITRQVVIELINELEIPFREANIGLFDLYSADEIFVTGTAAEIAPVTYIDGRTVGNGKPGKVTKMLMEKFRERTENEGVEIYR
notes: mainly homodimer in solution, hexamer in crystal; catalytic Lys152
On to B2, for which the Km in data set [4] is 10600 ± 1900 µM; in data set [5], 1900 ± 600 µM.

The values are drawn from PMC6353796, “Thermostable Branched-Chain Amino Acid Transaminases From the Archaea Geoglobus acetivorans and Archaeoglobus fulgidus: Biochemical and Structural Characterization” (Frontiers in Bioengineering and Biotechnology, 2019).
